Source: patent publication US20240216484A1

Target: SARS-CoV-2 spike protein, extracellular domain (1-1213), recombinant from HEK293 cells (SARS-CoV-2) (UniProt P0DTC2)

HZI 2-09 (Anlec in TBS; lectin batch isolated from bromelain)
Kd: 8.25 µM
koff: 0.003 s⁻¹
kon: 331 M⁻¹ s⁻¹
